This is an account of results in patent US20230374088A1 (GENERAL HOSPITAL, published 2023).

For one assay, the target named is T1, Kif27-DM-GFP (1-580aa) (human, UniProt Q86VH2 1-580).
T1 construct: range 1-580; Called dimeric; not shown: GFP tag, C-terminal by the name
T1 sequence (looked up): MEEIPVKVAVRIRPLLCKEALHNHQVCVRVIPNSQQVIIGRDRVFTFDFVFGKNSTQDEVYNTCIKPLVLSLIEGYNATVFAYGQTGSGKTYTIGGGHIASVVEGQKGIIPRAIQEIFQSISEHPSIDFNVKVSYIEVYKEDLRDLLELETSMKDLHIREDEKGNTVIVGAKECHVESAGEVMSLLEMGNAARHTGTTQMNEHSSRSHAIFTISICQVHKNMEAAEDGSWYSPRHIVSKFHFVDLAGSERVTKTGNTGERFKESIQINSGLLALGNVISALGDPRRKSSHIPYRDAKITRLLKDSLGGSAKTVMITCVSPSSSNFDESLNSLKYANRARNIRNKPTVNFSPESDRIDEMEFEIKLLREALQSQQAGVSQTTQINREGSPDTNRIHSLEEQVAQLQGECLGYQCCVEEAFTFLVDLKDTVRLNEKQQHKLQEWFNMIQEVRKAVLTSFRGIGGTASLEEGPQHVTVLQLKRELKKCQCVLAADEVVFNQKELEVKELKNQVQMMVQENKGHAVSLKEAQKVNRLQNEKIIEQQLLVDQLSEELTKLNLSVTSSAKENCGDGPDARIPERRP
In words: TIRF microscopy on microtubules; 100 nM Gli2-ZF-SNAP-Alexa647 with 100 nM kinesin.

The target in another assay is T2, Kif7-DM (1-543aa) (human, UniProt Q2M1P5 1-543).
T2 construct: As used for cryo-EM, without GFP; Expressed with a TEV-cleavable N-terminal 6xHis-SUMOstar tag; also called Kif7 dimer; dimeric Kif7
T2 sequence: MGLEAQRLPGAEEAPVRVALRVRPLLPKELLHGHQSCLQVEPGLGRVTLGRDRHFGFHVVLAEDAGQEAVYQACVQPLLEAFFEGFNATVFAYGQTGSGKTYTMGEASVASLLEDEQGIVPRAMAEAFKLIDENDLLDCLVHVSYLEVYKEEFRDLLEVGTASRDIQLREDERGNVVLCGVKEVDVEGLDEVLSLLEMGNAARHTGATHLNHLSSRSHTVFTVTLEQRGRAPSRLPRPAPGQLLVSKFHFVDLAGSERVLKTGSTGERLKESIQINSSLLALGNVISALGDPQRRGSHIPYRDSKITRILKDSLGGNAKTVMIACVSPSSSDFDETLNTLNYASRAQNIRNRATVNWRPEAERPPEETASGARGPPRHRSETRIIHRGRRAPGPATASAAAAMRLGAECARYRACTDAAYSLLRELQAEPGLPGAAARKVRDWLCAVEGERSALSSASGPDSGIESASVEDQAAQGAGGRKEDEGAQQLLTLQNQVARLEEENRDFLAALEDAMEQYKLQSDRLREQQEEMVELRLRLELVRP
Description: cryo-EM of microtubule-bound Kif7-DM with AMP-PNP, 3.9 Å. Here is the method:
For grid preparation, all Kif7-GIi2 preparations were diluted using BRB80 (80 mM 1,4-piperazinediethanesulfonic acid [PIPES], pH 6.8, 1 mM MgCl₂, 1 mM ethylene glycol tetraacetic acid [EGTA]). Porcine brain microtubules were prepared from frozen aliquots of 5 mg/ml tubulin (Cytoskeleton, Denver, CO) in polymerization buffer (BRB80; 80 mM PIPES, pH 6.8, 1 mM EGTA, 2 mM MgCl₂, 3 mM GMP-CPP, 10% dimethyl sulfoxide (DMSO)) at 37° C. for 2-3 hours. The polymerized microtubules were then incubated at room temperature for several hours or overnight before use. The following day or several hours later the microtubules were spun down on a bench top centrifuge 14.00 RPM 10 min to pellet. The pellet was resuspended in polymerization buffer without DMSO. The Kif7 dimer and monomer preparations were made by mixing the Kif7 with the GIi2 or GIi2-SNAP for 1 hour prior to incubation with the microtubules. Kif7-dimer (0.36 mg/ml) plus GIi2 (0.2 mg/ml) in BRB plus 2 mM ADP, 2 mM MgcI2, Kif7-monomer (0.45 mg/mL) or Kif7 dimer plus GIi2_SNAP (0.30 mg/mL) plus BRB80 with 1 mM AMPPNP and 1 mM MgCl₂. All microtubule samples were prepared on 1.2/1.3 400-mesh grids (Electron Microscopy Services) Grids were glow-discharged before sample application. The cryo-samples were prepared using a manual plunger, which was placed in a homemade humidity chamber that varied between 80 and 90% relative humidity. […]

Another assay addresses T3, FLAG-Kif7 (544-1343aa) (human, UniProt Q2M1P5 544-1343).
T3 construct: Expressed in Expi293F cells for the pull-down; also called C-terminal half of Kif7; not shown: FLAG tag from pCMV-BICEP-4 (MCS1), N-terminal by the name
T3 sequence: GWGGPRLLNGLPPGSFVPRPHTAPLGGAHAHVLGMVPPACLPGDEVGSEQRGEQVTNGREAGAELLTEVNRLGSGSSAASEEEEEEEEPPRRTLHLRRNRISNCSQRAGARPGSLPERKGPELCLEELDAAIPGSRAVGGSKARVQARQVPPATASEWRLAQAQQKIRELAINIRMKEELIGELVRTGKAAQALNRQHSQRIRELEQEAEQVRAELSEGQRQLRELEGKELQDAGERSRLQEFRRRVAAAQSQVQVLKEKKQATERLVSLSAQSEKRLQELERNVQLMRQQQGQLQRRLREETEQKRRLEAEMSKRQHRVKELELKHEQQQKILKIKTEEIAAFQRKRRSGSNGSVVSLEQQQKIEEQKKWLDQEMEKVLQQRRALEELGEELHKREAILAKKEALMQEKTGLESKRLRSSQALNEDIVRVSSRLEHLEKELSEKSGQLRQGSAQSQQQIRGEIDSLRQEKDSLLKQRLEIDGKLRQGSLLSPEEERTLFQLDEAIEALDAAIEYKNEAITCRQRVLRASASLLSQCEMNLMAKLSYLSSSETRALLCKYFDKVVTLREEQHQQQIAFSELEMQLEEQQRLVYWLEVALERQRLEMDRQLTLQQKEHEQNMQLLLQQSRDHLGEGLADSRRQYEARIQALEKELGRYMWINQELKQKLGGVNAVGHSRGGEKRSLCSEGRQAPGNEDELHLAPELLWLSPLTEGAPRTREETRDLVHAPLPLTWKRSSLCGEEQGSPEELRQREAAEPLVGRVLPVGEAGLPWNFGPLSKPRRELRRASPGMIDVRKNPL
Description: pull-down on anti-FLAG beads, anti-c-myc blot, Expi293F cells. From the text:
(§1) Immunoprecipitation (IP) using anti-FLAG magnetic beads. Input (cell lysate), FT (flow through), wash and beads samples were immunoblotted (IB) with anti c-Myc antibody to detect Gli2. […] The blots are representative images of a minimum of three repeats. Gli2-ZF mutants are as follows: ZF2-mut (H493A, R496A), ZF3-mut (H503A, R516A, K521A), ZF4-mut (R550A, K552A, R556A). Kif7-CC mutants are as follows: S1-mut (E500A, E501A, E502A, D505A), S2-mut (E511A, E515A), S3-mut1 (E526A, E529A) and S3-mut2 (E530A, R535A).
(§2) To narrow down the residues that participate in binding, we analyzed the model of the Kif7-SCC:Gli2-ZF complex using PDBsum server (De Beer et al., Nucleic acids research, 42, D292-D296, 2014). We performed alanine scanning mutagenesis of the charged residues on Gli2-ZF that came up as part of the binding interface in the PDBsum analysis and analyzed their binding with pull-down assay (FIG. 3D). […] We systematically mutated the residues to alanine and performed the pull-down assay with Gli2-ZF.

The target in the next assay is T4, c-Myc-Gli2 (595-1568aa) (human, UniProt P10070 595-1568).
T4 construct: the end of the construct is meant as the C-terminus of the protein; also called C-terminal half of Gli2; not shown: c-myc tag from pCMV-BICEP-4 (MCS2), N-terminal by the name
T4 sequence (looked up): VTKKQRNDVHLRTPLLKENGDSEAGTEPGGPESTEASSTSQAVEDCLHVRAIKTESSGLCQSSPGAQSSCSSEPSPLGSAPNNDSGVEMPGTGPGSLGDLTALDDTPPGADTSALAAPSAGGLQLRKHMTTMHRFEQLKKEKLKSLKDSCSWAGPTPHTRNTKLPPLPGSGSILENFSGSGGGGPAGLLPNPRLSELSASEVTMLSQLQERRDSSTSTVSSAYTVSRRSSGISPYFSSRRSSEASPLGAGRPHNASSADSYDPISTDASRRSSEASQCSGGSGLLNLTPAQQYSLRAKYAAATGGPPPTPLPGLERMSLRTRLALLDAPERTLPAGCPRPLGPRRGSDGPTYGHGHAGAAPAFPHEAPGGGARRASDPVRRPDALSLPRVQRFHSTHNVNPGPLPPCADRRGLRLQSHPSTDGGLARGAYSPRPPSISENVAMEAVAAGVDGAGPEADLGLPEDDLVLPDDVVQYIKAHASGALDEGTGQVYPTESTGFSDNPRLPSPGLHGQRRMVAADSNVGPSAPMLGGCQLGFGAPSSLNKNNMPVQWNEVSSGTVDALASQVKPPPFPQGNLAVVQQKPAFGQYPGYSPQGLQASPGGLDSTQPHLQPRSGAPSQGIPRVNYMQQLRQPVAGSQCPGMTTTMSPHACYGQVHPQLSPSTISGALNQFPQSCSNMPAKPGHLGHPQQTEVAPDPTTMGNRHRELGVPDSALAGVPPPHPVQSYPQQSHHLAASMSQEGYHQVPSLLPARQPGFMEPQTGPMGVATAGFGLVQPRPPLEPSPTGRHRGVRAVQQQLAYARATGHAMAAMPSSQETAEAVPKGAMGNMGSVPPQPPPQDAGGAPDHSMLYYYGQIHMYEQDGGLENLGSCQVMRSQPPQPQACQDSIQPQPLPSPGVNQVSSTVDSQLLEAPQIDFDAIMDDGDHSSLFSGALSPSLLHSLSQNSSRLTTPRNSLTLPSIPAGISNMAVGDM
The assay is described as above.
From the text: as §1, §2

B1: Gli2-ZF-SNAP (other, human, UniProt P10070 418-604, looked up)
chain: KEDLDRDDCKQEAEVVIYETNCHWEDCTKEYDTQEQLVHHINNEHIHGEKKEFVCRWQACTREQKPFKAQYMLVVHMRRHTGEKPHKCTFEGCSKAYSRLENLKTHLRSHTGEKPYVCEHEGCNKAFSNASDRAKHQNRTHSNEKPYICKIPGCTKRYTDPSSLRKHVKTVHGPDAHVTKKQRNDVH
modifications: Alexa 647 dye on the SNAP tag in the TIRF assays
notes: Labeled with Alexa 647 for TIRF microscopy; used unlabeled (as far as told) for cryo-EM; also called Gli2-ZF-SNAP-Alexa 647; Gli2-ZF-Alexa 647; not shown: C-terminal SNAP tag
Turning to B1, the binding result in the assay with Kif27-DM-GFP (1-580aa) is given as “no binding”; with Kif7-DM (1-543aa), “binds”.

B2: c-Myc-Gli2 (1-594aa) (other, human, UniProt P10070 1-594, looked up)
chain: METSASATASEKQEAKSGILEAAGFPDPGKKASPLVVAAAAAAAVAAQGVPQHLLPPFHAPLPIDMRHQEGRYHYEPHSVHGVHGPPALSGSPVISDISLIRLSPHPAGPGESPFNAPHPYVNPHMEHYLRSVHSSPTLSMISAARGLSPADVAQEHLKERGLFGLPAPGTTPSDYYHQMTLVAGHPAPYGDLLMQSGGAASAPHLHDYLNPVDVSRFSSPRVTPRLSRKRALSISPLSDASLDLQRMIRTSPNSLVAYINNSRSSSAASGSYGHLSAGALSPAFTFPHPINPVAYQQILSQQRGLGSAFGHTPPLIQPSPTFLAQQPMALTSINATPTQLSSSSNCLSDTNQNKQSSESAVSSTVNPVAIHKRSKVKTEPEGLRPASPLALTQGQVSGHGSCGCALPLSQEQLADLKEDLDRDDCKQEAEVVIYETNCHWEDCTKEYDTQEQLVHHINNEHIHGEKKEFVCRWQACTREQKPFKAQYMLVVHMRRHTGEKPHKCTFEGCSKAYSRLENLKTHLRSHTGEKPYVCEHEGCNKAFSNASDRAKHQNRTHSNEKPYICKIPGCTKRYTDPSSLRKHVKTVHGPDAH
notes: Expressed in Expi293F cells for the pull-down; also called N-terminal half of Gli2; not shown: c-myc tag from pCMV-BICEP-4 (MCS2), N-terminal by the name
With B2, the binding result in the assay with FLAG-Kif7 (544-1343aa) was “no binding”.

B3: FLAG-Kif7 (1-543aa) (other)
chain: MGLEAQRLPGAEEAPVRVALRVRPLLPKELLHGHQSCLQVEPGLGRVTLGRDRHFGFHVVLAEDAGQEAVYQACVQPLLEAFFEGFNATVFAYGQTGSGKTYTMGEASVASLLEDEQGIVPRAMAEAFKLIDENDLLDCLVHVSYLEVYKEEFRDLLEVGTASRDIQLREDERGNVVLCGVKEVDVEGLDEVLSLLEMGNAARHTGATHLNHLSSRSHTVFTVTLEQRGRAPSRLPRPAPGQLLVSKFHFVDLAGSERVLKTGSTGERLKESIQINSSLLALGNVISALGDPQRRGSHIPYRDSKITRILKDSLGGNAKTVMIACVSPSSSDFDETLNTLNYASRAQNIRNRATVNWRPEAERPPEETASGARGPPRHRSETRIIHRGRRAPGPATASAAAAMRLGAECARYRACTDAAYSLLRELQAEPGLPGAAARKVRDWLCAVEGERSALSSASGPDSGIESASVEDQAAQGAGGRKEDEGAQQLLTLQNQVARLEEENRDFLAALEDAMEQYKLQSDRLREQQEEMVELRLRLELVRP
notes: Expressed in Expi293F cells for the pull-down; also called N-terminal half of Kif7; Kif7-DM; not shown: FLAG tag from pCMV-BICEP-4 (MCS1), N-terminal by the name
Regarding B3, the binding result with c-Myc-Gli2 (595-1568aa) is “no binding”.
